The values below come from article PMC2997466, “The unstructured C-terminal extension of UvrD interacts with UvrB, but is dispensable for nucleotide excision repair” (DNA Repair, 2009).

Data set [1] concerns UvrD (helicase II) (Escherichia coli MG1655). The data set can be described thus: DNA-dependent ATPase, poly(dT) titration (KDNA, half-maximal activity). The conditions noted are these: NER complex: 40 mM HEPES pH 8.0, 100 mM KCl, 8 mM MgCl2, 5 mM DTT, 100 ug/ml BSA, 11% glycerol, 2 mM ATP with regeneration system, 37 C; ATPase assay ….
Data set [2] concerns UvrD1-647 (Escherichia coli MG1655). The data set is described as above. The conditions noted are these: NER complex: 40 mM HEPES pH 8.0, 100 mM KCl, 8 mM MgCl2, 5 mM DTT, 100 ug/ml BSA, 11% glycerol, 2 mM ATP with regeneration system, 37 C; ATPase assay ….
Data set [3] deals with T1, λ cI-UvrB 35–252 (1a2) fusion protein (E. coli, UniProt P0A8F8 35-252).
T1 construct: UvrB, E. coli, residues 35-252 (domains 1a and 2); also called UvrB fragment containing domains 1a and 2; source: bacterial two-hybrid fusion, pRA03 derivative, in E. coli KS1; not shown: λ cI residues 1–236, N-terminal, kept
T1 sequence (looked up): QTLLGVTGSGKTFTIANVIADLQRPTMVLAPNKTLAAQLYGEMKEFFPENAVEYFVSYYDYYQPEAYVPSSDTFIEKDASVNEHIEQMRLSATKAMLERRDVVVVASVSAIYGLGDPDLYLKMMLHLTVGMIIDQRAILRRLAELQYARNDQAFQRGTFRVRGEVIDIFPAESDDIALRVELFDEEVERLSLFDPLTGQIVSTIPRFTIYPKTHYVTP
The data set can be described thus: two-hybrid; bacterial 2-hybrid (Dove and Hochschild) in E. coli KS1: UvrD fragments fused to RNA polymerase α 1–248, UvrB fragments fused to λ cI 1–236; chromosomal lacZ reporter, β-galactosidase in Miller Units; LB with 1 mM IPTG, 30 °C, mid-log phase. The conditions noted are these: partners not purified.

The target of data set [4] is T2, λ cI-UvrB 251–547 (1b3) fusion protein (E. coli, UniProt P0A8F8 251-547).
T2 construct: UvrB, E. coli, residues 251-547 (domains 1b and 3); also called UvrB domains 1b and 3; source: bacterial two-hybrid fusion, pRA03 derivative, in E. coli KS1; not shown: λ cI residues 1–236, N-terminal, kept
T2 sequence (looked up): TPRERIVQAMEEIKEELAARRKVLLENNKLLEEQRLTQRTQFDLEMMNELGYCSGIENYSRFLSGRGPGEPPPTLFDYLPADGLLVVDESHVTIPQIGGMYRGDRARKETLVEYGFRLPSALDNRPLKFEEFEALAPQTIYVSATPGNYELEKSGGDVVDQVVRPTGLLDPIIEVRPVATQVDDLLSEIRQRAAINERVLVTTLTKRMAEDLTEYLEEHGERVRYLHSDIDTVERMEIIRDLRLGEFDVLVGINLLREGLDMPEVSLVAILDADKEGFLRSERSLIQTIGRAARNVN
The data set is described as above. The conditions noted are these: partners not purified.

Data set [5] addresses T3, λ cI-UvrB 527–673 (4) fusion protein (E. coli, UniProt P0A8F8 527-673).
T3 construct: UvrB, E. coli, residues 527-673 (domain 4); also called UvrB domain 4; source: bacterial two-hybrid fusion, pRA03 derivative, in E. coli KS1; not shown: λ cI residues 1–236, N-terminal, kept
T3 sequence (looked up): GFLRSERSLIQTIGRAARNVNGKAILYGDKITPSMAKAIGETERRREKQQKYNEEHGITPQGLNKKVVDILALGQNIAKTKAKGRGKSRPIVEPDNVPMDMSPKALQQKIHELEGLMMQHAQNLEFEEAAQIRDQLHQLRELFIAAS
Described as above. Particulars: partners not purified.

The target of data set [6] is T4, UvrD (helicase II), native untagged (E. coli, UniProt P03018 1-720).
T4 construct: UvrD (helicase II), E. coli MG1655, whole coding region from start to stop codon (720 residues); also called full-length UvrD; wild-type UvrD; source: E. coli BL21(DE3), pETDUET-UvrD, purified (heparin, MonoQ)
T4 sequence (looked up): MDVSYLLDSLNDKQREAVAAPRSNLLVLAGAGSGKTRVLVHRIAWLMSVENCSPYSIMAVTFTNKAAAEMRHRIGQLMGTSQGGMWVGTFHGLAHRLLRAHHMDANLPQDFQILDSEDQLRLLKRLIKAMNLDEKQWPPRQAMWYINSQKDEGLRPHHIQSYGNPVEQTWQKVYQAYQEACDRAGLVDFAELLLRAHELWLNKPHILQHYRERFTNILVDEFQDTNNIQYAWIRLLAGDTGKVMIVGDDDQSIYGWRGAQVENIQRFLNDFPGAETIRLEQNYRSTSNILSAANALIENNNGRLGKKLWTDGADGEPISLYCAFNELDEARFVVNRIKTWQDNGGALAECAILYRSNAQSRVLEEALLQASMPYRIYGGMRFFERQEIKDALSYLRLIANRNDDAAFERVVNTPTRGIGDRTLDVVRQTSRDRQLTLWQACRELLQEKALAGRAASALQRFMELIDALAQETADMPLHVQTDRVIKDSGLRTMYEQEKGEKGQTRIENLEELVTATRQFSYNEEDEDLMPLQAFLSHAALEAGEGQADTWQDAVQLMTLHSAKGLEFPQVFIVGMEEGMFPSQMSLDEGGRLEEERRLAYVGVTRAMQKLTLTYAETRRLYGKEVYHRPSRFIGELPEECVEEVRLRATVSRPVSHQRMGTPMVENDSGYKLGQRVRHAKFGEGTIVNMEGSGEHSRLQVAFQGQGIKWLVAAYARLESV
Nature of the data set: SPR; BIAcore 2000; UvrB or UvrB_(1–414) immobilised on CM5 chip by amine coupling (~8000 RU); UvrD or UvrD_(1–647) injected at 0.05-4.0 μM, 20 μl/min, 25 °C; 10 mM HEPES pH 7.4, 150 mM NaCl, 3 mM EDTA, 0.005% Tween20. The conditions noted are these: both partners purified.

Data set [7] deals with T5, ^bioUvrD, full-length UvrD biotinylated at the N-terminus (E. coli, UniProt P03018 1-720, biotin on the lysine of the N-terminal tag … (biotinylated in vivo by BirA)).
T5 construct: UvrD (helicase II), E. coli MG1655, whole coding region (720 residues); The tag was inserted at the NcoI site that overlaps the start codon of uvrD; also called biotinylated UvrD; source: E. coli BL21(DE3) with pBirACm and pET28a-^bioUvrD, purified (ammonium sulphate, Softlink Avidin, HiTrap heparin)
T5 sequence (looked up): T4 sequence (looked up)
The data set can be described thus: SPR; BIAcore 2000; ^bioUvrD or ^bioUvrD_(1–647) immobilised on streptavidin (SA) chip (~7000 RU); UvrB or UvrB_(1–414) injected at 0.05-4.0 μM, 20 μl/min, 25 °C; 10 mM HEPES pH 7.4, 150 mM NaCl, 3 mM EDTA, 0.005% Tween20. Particulars: both partners purified.

As for poly(dT), the figures for the K half (uM nucleotides) in data set [1] and in data set [2] were 0.54 and 2.5, respectively.

B1: α-UvrD 1–280 (1a1b1a) fusion protein (domain or fragment, E. coli, UniProt P03018 1-280, looked up)
chain: MDVSYLLDSLNDKQREAVAAPRSNLLVLAGAGSGKTRVLVHRIAWLMSVENCSPYSIMAVTFTNKAAAEMRHRIGQLMGTSQGGMWVGTFHGLAHRLLRAHHMDANLPQDFQILDSEDQLRLLKRLIKAMNLDEKQWPPRQAMWYINSQKDEGLRPHHIQSYGNPVEQTWQKVYQAYQEACDRAGLVDFAELLLRAHELWLNKPHILQHYRERFTNILVDEFQDTNNIQYAWIRLLAGDTGKVMIVGDDDQSIYGWRGAQVENIQRFLNDFPGAETIRLE
notes: UvrD (helicase II), E. coli, residues 1-280 (domains 1a and 1b); also called N-terminal fragment of UvrD; UvrD domains 1a and 1b; source: bacterial two-hybrid fusion, pRA02 derivative, in E. coli KS1; not shown: RNA polymerase α subunit residues 1–248, N-terminal, kept
For the molecule B1, the β-galactosidase activity in data set [3] was 111 Miller Units; in data set [4], 336 Miller Units; in data set [5], 86 Miller Units.

B2: UvrB, N-terminally hexa-His-tagged (natural protein, E. coli, UniProt P0A8F8 1-673, looked up)
chain: MSKPFKLNSAFKPSGDQPEAIRRLEEGLEDGLAHQTLLGVTGSGKTFTIANVIADLQRPTMVLAPNKTLAAQLYGEMKEFFPENAVEYFVSYYDYYQPEAYVPSSDTFIEKDASVNEHIEQMRLSATKAMLERRDVVVVASVSAIYGLGDPDLYLKMMLHLTVGMIIDQRAILRRLAELQYARNDQAFQRGTFRVRGEVIDIFPAESDDIALRVELFDEEVERLSLFDPLTGQIVSTIPRFTIYPKTHYVTPRERIVQAMEEIKEELAARRKVLLENNKLLEEQRLTQRTQFDLEMMNELGYCSGIENYSRFLSGRGPGEPPPTLFDYLPADGLLVVDESHVTIPQIGGMYRGDRARKETLVEYGFRLPSALDNRPLKFEEFEALAPQTIYVSATPGNYELEKSGGDVVDQVVRPTGLLDPIIEVRPVATQVDDLLSEIRQRAAINERVLVTTLTKRMAEDLTEYLEEHGERVRYLHSDIDTVERMEIIRDLRLGEFDVLVGINLLREGLDMPEVSLVAILDADKEGFLRSERSLIQTIGRAARNVNGKAILYGDKITPSMAKAIGETERRREKQQKYNEEHGITPQGLNKKVVDILALGQNIAKTKAKGRGKSRPIVEPDNVPMDMSPKALQQKIHELEGLMMQHAQNLEFEEAAQIRDQLHQLRELFIAAS
notes: UvrB, E. coli MG1655, whole coding region from start to stop codon (673 residues); also called full-length UvrB; source: E. coli XL1-Blue, pQE30UvrB, purified (Ni HiTrap chelating column)
In the case of B2, the binding result in data set [6] and in data set [7] was “binds” in each case.

B3: α-UvrD 645–720 (C-extension) fusion protein (domain or fragment, E. coli, UniProt P03018 645-720, looked up)
chain: RLRATVSRPVSHQRMGTPMVENDSGYKLGQRVRHAKFGEGTIVNMEGSGEHSRLQVAFQGQGIKWLVAAYARLESV
notes: UvrD (helicase II), E. coli, residues 645-720 (unstructured C-terminal extension); also called C-terminal extension of UvrD (residues 645–720); source: bacterial two-hybrid fusion, pRA02 derivative, in E. coli KS1; not shown: RNA polymerase α subunit residues 1–248, N-terminal, kept
In data set [3], B3 returned a β-galactosidase activity of 140 Miller Units.

B4: UvrB_(1–414), N-terminally His-tagged (domain or fragment, E. coli, UniProt P0A8F8 1-414, looked up)
chain: MSKPFKLNSAFKPSGDQPEAIRRLEEGLEDGLAHQTLLGVTGSGKTFTIANVIADLQRPTMVLAPNKTLAAQLYGEMKEFFPENAVEYFVSYYDYYQPEAYVPSSDTFIEKDASVNEHIEQMRLSATKAMLERRDVVVVASVSAIYGLGDPDLYLKMMLHLTVGMIIDQRAILRRLAELQYARNDQAFQRGTFRVRGEVIDIFPAESDDIALRVELFDEEVERLSLFDPLTGQIVSTIPRFTIYPKTHYVTPRERIVQAMEEIKEELAARRKVLLENNKLLEEQRLTQRTQFDLEMMNELGYCSGIENYSRFLSGRGPGEPPPTLFDYLPADGLLVVDESHVTIPQIGGMYRGDRARKETLVEYGFRLPSALDNRPLKFEEFEALAPQTIYVSATPGNYELEKSGGDVVDQVVR
notes: also called truncated derivative of UvrB comprising domains 1a, 2 and 1b
With B4, the binding result in data set [6] and in data set [7] was “binds” in each case.
